From patent US20240327535A1 (EISAI R AND D MANAGEMENT, published 2024)

T1: extracellular domain of human BCMA (human, UniProt Q02223 1-54)
T1 construct: amine-linked to Octet AR2G tips; also called hsBCMA; BCMA (human)
T1 sequence: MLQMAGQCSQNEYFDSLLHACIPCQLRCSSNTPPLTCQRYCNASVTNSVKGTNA


Legend:
[1] = target: T2, extracellular domain of rhesus monkey BCMA (rhesus monkey, UniProt F7FFA0 1-53); test: Octet BLI; Fab 200 nM
T2 construct: extracellular domain; also called RhBCMA

[2] = target: T1, extracellular domain of human BCMA; test: Octet BLI; Fab 200 nM

T2 sequence (F7FFA0 entry or part of it): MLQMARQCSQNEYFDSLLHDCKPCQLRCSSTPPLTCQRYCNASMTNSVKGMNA

Row | Binder | Kd [1] | Kd [2]
1 | AB200-R1a-Fab_VH40 (Fab, V domains shown) VH: QVQLVQSGAEVKKPGSSVKVSCKASGGTFSNFWMHWVRQAPGQGLEWMGATYRGHSDTYYNHKFKGRVTITADKSTSTAYMELSSLRSEDTAVYYCARGAIYHGYDVLENWGQGTLVTVSS VL: DIQMTQSPSSLSASVGDRVTITCSATQDISNYLNWYQQKPGKAPKLLIYFTSNLQSGVPSRFSGSGSGTDFTLTISSLQPEDFATYYCQQYRKLPWTFGQGTKLEIKR | 45.3 nM | 17.2 nM
2 | AB200-R1a-Fab_VH49 (Fab, V domains shown) VH: QVQLVQSGAEVKKPGSSVKVSCKASGGTFSNYWIHWVRQAPGQGLEWMGASYRGHSDTYYNQKFKGRVTITADKSTSTAYMELSSLRSEDTAVYYCARGAIYHGYDVIDNWGQGTLVTVSS VL: DIQMTQSPSSLSASVGDRVTITCSATQDISNYLNWYQQKPGKAPKLLIYFTSNLQSGVPSRFSGSGSGTDFTLTISSLQPEDFATYYCQQYRKLPWTFGQGTKLEIKR | 15.6 nM | 6.72 nM
3 | AB200-R1a-Fab_VH44 (Fab, V domains shown) VH: QVQLVQSGAEVKKPGSSVKVSCKASGGTFSNYWMHWVRQAPGQGLEWMGGTYRGHSDTYYNQRFKGRVTITADKSTSTAYMELSSLRSEDTAVYYCARGAIYHGYDILDNWGQGTLVTVSS VL: DIQMTQSPSSLSASVGDRVTITCSATQDISNYLNWYQQKPGKAPKLLIYFTSNLQSGVPSRFSGSGSGTDFTLTISSLQPEDFATYYCQQYRKLPWTFGQGTKLEIKR | 8.61 nM | 29 nM
4 | AB200-R1a-Fab_VH52 (Fab, V domains shown) VH: QVQLVQSGAEVKKPGSSVKVSCKASGGSFSDYWMHWVRQAPGQGLEWMGATYRGHSTTYYNQKFKGRVTITADKSTSTAYMELSSLRSEDTAVYYCARGAIYHGYDVLDNWGQGTLVTVSS VL: DIQMTQSPSSLSASVGDRVTITCSATQDISNYLNWYQQKPGKAPKLLIYFTSNLQSGVPSRFSGSGSGTDFTLTISSLQPEDFATYYCQQYRKLPWTFGQGTKLEIKR | 24.6 nM | 18 nM
5 | AB200-R1a-Fab_VH45 (Fab, V domains shown) VH: QVQLVQSGAEVKKPGSSVKVSCKASGGTFSNYWMHWVRQAPGQGLEWMGATYRGHSDTYYNNKFKGRVTITADKSTSTAYMELSSLRSEDTAVYYCARGAIYHGYDVLEDWGQGTLVTVSS VL: DIQMTQSPSSLSASVGDRVTITCSATQDISNYLNWYQQKPGKAPKLLIYFTSNLQSGVPSRFSGSGSGTDFTLTISSLQPEDFATYYCQQYRKLPWTFGQGTKLEIKR | 44.9 nM | 21.1 nM
6 | AB200-R1a-Fab_VH46 (Fab, V domains shown) VH: QVQLVQSGAEVKKPGSSVKVSCKASGGTFSNYWMHWVRQAPGQGLEWMGATYRGHSDTNYNQKYKGRVTITADKSTSTAYMELSSLRSEDTAVYYCARGAIYNGYDVLDNWGQGTLVTVSS VL: DIQMTQSPSSLSASVGDRVTITCSATQDISNYLNWYQQKPGKAPKLLIYFTSNLQSGVPSRFSGSGSGTDFTLTISSLQPEDFATYYCQQYRKLPWTFGQGTKLEIKR | 20 nM | 11.6 nM
7 | AB200-R1a-Fab_VH48 (Fab, V domains shown) VH: QVQLVQSGAEVKKPGSSVKVSCKASGGTFSDYWMHWVRQAPGQGLEWMGATYRGHSDTYYNQRFKGRVTITADKSTSTAYMELSSLRSEDTAVYYCARGAIYHGYDVMDNWGQGTLVTVSS VL: DIQMTQSPSSLSASVGDRVTITCSATQDISNYLNWYQQKPGKAPKLLIYFTSNLQSGVPSRFSGSGSGTDFTLTISSLQPEDFATYYCQQYRKLPWTFGQGTKLEIKR | 25 nM | 34.5 nM
8 | AB200-R1a-Fab_VH42 (Fab, V domains shown) VH: QVQLVQSGAEVKKPGSSVKVSCKASGGTFSNYWMHWVRQAPGQGLEWMGATYRGHSTTYYNQKFKGRVTITADKSTSTAYMELSSLRSEDTAVYYCARGSIYHGYDVMDNWGQGTLVTVSS VL: DIQMTQSPSSLSASVGDRVTITCSATQDISNYLNWYQQKPGKAPKLLIYFTSNLQSGVPSRFSGSGSGTDFTLTISSLQPEDFATYYCQQYRKLPWTFGQGTKLEIKR | 15.5 nM | 28.4 nM
